The assay has as its target mouse leptin receptor on Ba/F3-mLR cells (mouse) (UniProt P48356). The experiment in a line: cell-based or functional assay.
Sequence of UniProt P48356 (P48356 22-1162): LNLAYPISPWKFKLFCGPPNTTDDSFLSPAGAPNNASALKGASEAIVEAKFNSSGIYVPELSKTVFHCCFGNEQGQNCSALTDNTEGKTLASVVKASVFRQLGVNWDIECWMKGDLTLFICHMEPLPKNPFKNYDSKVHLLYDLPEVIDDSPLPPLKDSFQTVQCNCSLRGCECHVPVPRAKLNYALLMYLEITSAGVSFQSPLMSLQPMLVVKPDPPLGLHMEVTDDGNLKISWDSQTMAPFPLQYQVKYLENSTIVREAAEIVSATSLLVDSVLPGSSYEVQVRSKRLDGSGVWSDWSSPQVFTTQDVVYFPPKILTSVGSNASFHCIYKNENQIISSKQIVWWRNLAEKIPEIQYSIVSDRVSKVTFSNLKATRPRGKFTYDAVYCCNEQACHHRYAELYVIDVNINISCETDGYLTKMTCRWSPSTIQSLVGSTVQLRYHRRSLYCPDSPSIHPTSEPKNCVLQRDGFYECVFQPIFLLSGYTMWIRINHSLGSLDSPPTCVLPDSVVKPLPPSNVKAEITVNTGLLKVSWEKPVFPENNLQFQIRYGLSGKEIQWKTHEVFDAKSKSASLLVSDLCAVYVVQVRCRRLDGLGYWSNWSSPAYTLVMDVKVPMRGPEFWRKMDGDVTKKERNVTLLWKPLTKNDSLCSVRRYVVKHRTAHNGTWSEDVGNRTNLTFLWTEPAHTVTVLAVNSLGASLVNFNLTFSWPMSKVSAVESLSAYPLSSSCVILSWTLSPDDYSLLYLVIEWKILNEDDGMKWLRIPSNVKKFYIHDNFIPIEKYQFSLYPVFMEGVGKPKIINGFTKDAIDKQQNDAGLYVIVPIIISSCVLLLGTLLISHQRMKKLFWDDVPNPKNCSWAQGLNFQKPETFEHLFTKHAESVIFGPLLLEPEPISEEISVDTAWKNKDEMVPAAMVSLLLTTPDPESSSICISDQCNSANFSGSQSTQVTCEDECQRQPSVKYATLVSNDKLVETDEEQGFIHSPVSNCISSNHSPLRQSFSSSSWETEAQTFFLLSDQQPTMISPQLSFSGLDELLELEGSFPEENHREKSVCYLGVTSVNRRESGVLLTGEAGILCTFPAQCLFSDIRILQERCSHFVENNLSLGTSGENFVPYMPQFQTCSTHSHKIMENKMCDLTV

In turn, “scTNF WT-6xGGS-mLeptin L86N-FLAG (from UniProt P01375 77-233; P01375 80-233; P01375 80-233; P41160 22-167)” had an induction of proliferation of Ba/F3-mLR cells (XTT assay, 4 days) (times less potent) of 10.

Substance “scTNF WT-6xGGS-mLeptin L86S-FLAG (from UniProt P01375 77-233; P01375 80-233; P01375 80-233; P41160 22-167)” registered an induction of proliferation of Ba/F3-mLR cells (XTT assay, 4 days) (times less potent) of 3.

(Values after patent US11358997.)
